Experimental findings from article PMC6704107 (2019) are described below.

B1: Adeno-associated virus receptor (AAVR), wild-type, PKD1-5 domains [not stated] / Adeno-associated virus 1 (AAV1) particle, wild-type capsid [adeno-associated virus 1 (AAV1)] (parent complex)
chain 1: MEKRLGVKPNPASWILSGYYWQTSAKWLRSLYLFYTCFCFSVLWLSTDASESRCQQGKTQFGVGLRSGGENHLWLLEGTPSLQSCWAACCQDSACHVFWWLEGMCIQADCSRPQSCRAFRTHSSNSMLVFLKKFQTADDLGFLPEDDVPHLLGLGWNWASWRQSPPRAALRPAVSSSDQQSLIRKLQKRGSPSDVVTPIVTQHSKVNDSNELGGLTTSGSAEVHKAITISSPLTTDLTAELSGGPKNVSVQPEISEGLATTPSTQQVKSSEKTQIAVPQPVAPSYSYATPTPQASFQSTSAPYPVIKELVVSAGESVQITLPKNEVQLNAYVLQEPPKGETYTYDWQLITHPRDYSGEMEGKHSQILKLSKLTPGLYEFKVIVEGQNAHGEGYVNVTVKPEPRKNRPPIAIVSPQFQEISLPTTSTVIDGSQSTDDDKIVQYHWEELKGPLREEKISEDTAILKLSKLVPGNYTFSLTVVDSDGATNSTTANLTVNKAVDYPPVANAGPNQVITLPQNSITLFGNQSTDDHGITSYEWSLSPSSKGKVVEMQGVRTPTLQLSAMQEGDYTYQLTVTDTIGQQATAQVTVIVQPENNKPPQADAGPDKELTLPVDSTTLDGSKSSDDQKIISYLWEKTQGPDGVQLENANSSVATVTGLQVGTYVFTLTVKDERNLQSQSSVNVIVKEEINKPPIAKITGNVVITLPTSTAELDGSKSSDDKGIVSYLWTRDEGSPAAGEVLNHSDHHPILFLSNLVEGTYTFHLKVTDAKGESDTDRTTVEVKPDPRKNNLVEIILDINVSQLTERLKGMFIRQIGVLLGVLDSDIIVQKIQPYTEQSTKMVFFVQNEPPHQIFKGHEVAAMLKSELRKQKADFLIFRALEVNTVTCQLNCSDHGHCDSFTKRCICDPFWMENFIKVQLRDGDSNCEWSVLYVIIATFVIVVALGILSWTVICCCKRQKGKPKRKSKYKILDATDQESLELKPTSRAGIKQKGLLLSSSLMHSESELDSDDAIFTWPDREKGKLLHGQNGSVPNGQTPLKARSPREEIL
chain 2: MAADGYLPDWLEDNLSEGIREWWDLKPGAPKPKANQQKQDDGRGLVLPGYKYLGPFNGLDKGEPVNAADAAALEHDKAYDQQLKAGDNPYLRYNHADAEFQERLQEDTSFGGNLGRAVFQAKKRVLEPLGLVEEGAKTAPGKKRPVEQSPQEPDSSSGIGKTGQQPAKKRLNFGQTGDSESVPDPQPLGEPPATPAAVGPTTMASGGGAPMADNNEGADGVGNASGNWHCDSTWLGDRVITTSTRTWALPTYNNHLYKQISSASTGASNDNHYFGYSTPWGYFDFNRFHCHFSPRDWQRLINNNWGFRPKRLNFKLFNIQVKEVTTNDGVTTIANNLTSTVQVFSDSEYQLPYVLGSAHQGCLPPFPADVFMIPQYGYLTLNNGSQAVGRSSFYCLEYFPSQMLRTGNNFTFSYTFEEVPFHSSYAHSQSLDRLMNPLIDQYLYYLNRTQNQSGSAQNKDLLFSRGSPAGMSVQPKNWLPGPCYRQQRVSKTKTDNNNSNFTWTGASKYNLNGRESIINPGTAMASHKDDEDKFFPMSGVMIFGKESAGASNTALDNVMITDEEEIKATNPVATERFGTVAVNFQSSSTDPATGDVHAMGALPGMVWQDRDVYLQGPIWAKIPHTDGHFHPSPLMGGFGLKNPPPQILIKNTPVPANPPAEFSATKFASFITQYSTGQVSVEIEWELQKENSKRWNPEVQYTSNYAKSANVDFTVDNNGLYTEPRPIGTRYLTRPL

In the test the parent is B1. Kind of test: SPR (BIAcore); parent: 13.9 nM.
In the case of chain 1 V427A, the dissociation constant Kd amounted to 35.8 µM.

Consider chain 1 S425A, for which the dissociation constant (Kd) was found to be 3.68 µM.

Regarding chain 1 T426A, the Kd is 46.9 µM.
